± gives the uncertainty stated by the source.
B1: Nucleolar transcription factor 1, residues 408 to 469; numbered along this chain, P17480 (parent)
chain: KRPVSAMFIFSEEKRRQLQEERPELSESELTRLLARMWNDLSEKKKAKYKAREAALKAQSER

Variants of: B1
Assay: abundance fitness (aPCA) (normalised: wild type 0, dead -1); higher = more abundant; growth selection in yeast, the domain comes from the species named
Conditions: Homo sapiens

Variant	abundance fitness
KRPVSAMFIFSEEKRRQLQEERPELNESELTRLLARMWNDLSEKKKAKYKAREAALKAQSER [S26N]	-0.1 ± 0.1
KRPVSAMFIFSEEKRRQLQEERPELDESELTRLLARMWNDLSEKKKAKYKAREAALKAQSER [S26D]	-0.157 ± 0.098
KRPVSAMFIFSEEKRRQLQEERPELFESELTRLLARMWNDLSEKKKAKYKAREAALKAQSER [S26F]	-0.592 ± 0.11
KRPVSAMFIFSEEKRRQLQEERPELAESELTRLLARMWNDLSEKKKAKYKAREAALKAQSER [S26A]	-0.115 ± 0.056
KRPVSAMFIFSEEKRRQLQEERPELCESELTRLLARMWNDLSEKKKAKYKAREAALKAQSER [S26C]	-0.263 ± 0.18
KRPVSAMFIFSEEKRRQLQEERPELRESELTRLLARMWNDLSEKKKAKYKAREAALKAQSER [S26R]	-0.157 ± 0.059
KRPVSAMFIFSEEKRRQLQEERPELKESELTRLLARMWNDLSEKKKAKYKAREAALKAQSER [S26K]	-0.476 ± 0.18
KRPVSAMFIFSEEKRRQLQEERPELTESELTRLLARMWNDLSEKKKAKYKAREAALKAQSER [S26T]	-0.144 ± 0.089
KRPVSAMFIFSEEKRRQLQEERPELSYSELTRLLARMWNDLSEKKKAKYKAREAALKAQSER [E27Y]	-0.108 ± 0.1
KRPVSAMFIFSEEKRRQLQEERPELSVSELTRLLARMWNDLSEKKKAKYKAREAALKAQSER [E27V]	-0.201 ± 0.055
KRPVSAMFIFSEEKRRQLQEERPELSFSELTRLLARMWNDLSEKKKAKYKAREAALKAQSER [E27F]	-0.212 ± 0.091
KRPVSAMFIFSEEKRRQLQEERPELSASELTRLLARMWNDLSEKKKAKYKAREAALKAQSER [E27A]	-0.143 ± 0.06
KRPVSAMFIFSEEKRRQLQEERPELSGSELTRLLARMWNDLSEKKKAKYKAREAALKAQSER [E27G]	-0.09 ± 0.067
KRPVSAMFIFSEEKRRQLQEERPELSKSELTRLLARMWNDLSEKKKAKYKAREAALKAQSER [E27K]	-0.148 ± 0.089
KRPVSAMFIFSEEKRRQLQEERPELSHSELTRLLARMWNDLSEKKKAKYKAREAALKAQSER [E27H]	-0.4 ± 0.12
KRPVSAMFIFSEEKRRQLQEERPELSPSELTRLLARMWNDLSEKKKAKYKAREAALKAQSER [E27P]	-0.067 ± 0.066
KRPVSAMFIFSEEKRRQLQEERPELSMSELTRLLARMWNDLSEKKKAKYKAREAALKAQSER [E27M]	-0.358 ± 0.085
KRPVSAMFIFSEEKRRQLQEERPELSCSELTRLLARMWNDLSEKKKAKYKAREAALKAQSER [E27C]	-0.165 ± 0.1
KRPVSAMFIFSEEKRRQLQEERPELSNSELTRLLARMWNDLSEKKKAKYKAREAALKAQSER [E27N]	-0.33 ± 0.19
KRPVSAMFIFSEEKRRQLQEERPELSWSELTRLLARMWNDLSEKKKAKYKAREAALKAQSER [E27W]	-0.328 ± 0.11
KRPVSAMFIFSEEKRRQLQEERPELSDSELTRLLARMWNDLSEKKKAKYKAREAALKAQSER [E27D]	0.037 ± 0.1
KRPVSAMFIFSEEKRRQLQEERPELSTSELTRLLARMWNDLSEKKKAKYKAREAALKAQSER [E27T]	-0.133 ± 0.072

Variant	abundance fitness
KRPVSAMFIFSEEKRRQLQEERPELSSSELTRLLARMWNDLSEKKKAKYKAREAALKAQSER [E27S]	-0.178 ± 0.06
KRPVSAMFIFSEEKRRQLQEERPELSQSELTRLLARMWNDLSEKKKAKYKAREAALKAQSER [E27Q]	-0.121 ± 0.12
KRPVSAMFIFSEEKRRQLQEERPEQSESELTRLLARMWNDLSEKKKAKYKAREAALKAQSER [L25Q]	-0.477 ± 0.08
KRPVSAMFIFSEEKRRQLQEERPENSESELTRLLARMWNDLSEKKKAKYKAREAALKAQSER [L25N]	-0.646 ± 0.13
KRPVSAMFIFSEEKRRQLQEERPEYSESELTRLLARMWNDLSEKKKAKYKAREAALKAQSER [L25Y]	-0.173 ± 0.16
KRPVSAMFIFSEEKRRQLQEERPETSESELTRLLARMWNDLSEKKKAKYKAREAALKAQSER [L25T]	-0.423 ± 0.082
KRPVSAMFIFSEEKRRQLQEERPEVSESELTRLLARMWNDLSEKKKAKYKAREAALKAQSER [L25V]	-0.155 ± 0.054
KRPVSAMFIFSEEKRRQLQEERPERSESELTRLLARMWNDLSEKKKAKYKAREAALKAQSER [L25R]	-0.325 ± 0.054
KRPVSAMFIFSEEKRRQLQEERPELSESEPTRLLARMWNDLSEKKKAKYKAREAALKAQSER [L30P]	-1.1 ± 0.17
KRPVSAMFIFSEEKRRQLQEERPELSESEDTRLLARMWNDLSEKKKAKYKAREAALKAQSER [L30D]	-0.65 ± 0.27
KRPVSAMFIFSEEKRRQLQEERPELSESERTRLLARMWNDLSEKKKAKYKAREAALKAQSER [L30R]	-0.108 ± 0.043
KRPVSAMFIFSEEKRRQLQEERPELSESEKTRLLARMWNDLSEKKKAKYKAREAALKAQSER [L30K]	-0.103 ± 0.076
KRPVSAMFIFSEEKRRQLQEERPELSESEGTRLLARMWNDLSEKKKAKYKAREAALKAQSER [L30G]	-0.254 ± 0.047
KRPVSAMFIFSEEKRRQLQEERPELSESENTRLLARMWNDLSEKKKAKYKAREAALKAQSER [L30N]	-0.303 ± 0.082
KRPVSAMFIFSEEKRRQLQEERPELSESEFTRLLARMWNDLSEKKKAKYKAREAALKAQSER [L30F]	-0.327 ± 0.1
KRPVSAMFIFSEEKRRQLQEERPELSESEETRLLARMWNDLSEKKKAKYKAREAALKAQSER [L30E]	-0.227 ± 0.09
KRPVSAMFIFSEEKRRQLQEERPELSESECTRLLARMWNDLSEKKKAKYKAREAALKAQSER [L30C]	-0.078 ± 0.084
KRPVSAMFIFSEEKRRQLQEERPELSESEHTRLLARMWNDLSEKKKAKYKAREAALKAQSER [L30H]	-0.232 ± 0.12
KRPVSAMFIFSEEKRRQLQEERPELSESEITRLLARMWNDLSEKKKAKYKAREAALKAQSER [L30I]	-0.171 ± 0.13
KRPVSAMFIFSEEKRRQLQEERPELSESEMTRLLARMWNDLSEKKKAKYKAREAALKAQSER [L30M]	-0.043 ± 0.059
KRPVSAMFIFSEEKRRQLQEERPELSESEQTRLLARMWNDLSEKKKAKYKAREAALKAQSER [L30Q]	-0.032 ± 0.074

— the Human Domainome abundance scans (Beltran et al. 2025)
